Experimental data taken from article PMC10776578, “Epstein-Barr virus-driven B cell lymphoma mediated by a direct LMP1-TRAF6 complex” (Nature Communications, 2024).
Entries after “also recorded” stand apart in the source; their conditions may differ.

What was measured:
HA-LMP1 = test: Coimmunoprecipitation of HA-LMP1 with Flag-TRAF6 mutants in HEK293 cells; assay type: cell-based, Epstein-Barr virus; conditions: for coprecipitated HA-LMP1 signal (densitometry), mean: HEK293, mean of n = 3; for interaction of TRAF6 mutants with LMP1 in HEK293 cells (in words): coimmunoprecipitation
Method: (§1) Immunoblotting was essentially performed as described. Proteins were detected on nitrocellulose membranes (Bio-Rad, #1620115) using the following primary antibodies: α−6*His-tag (clone 4A4 or 2F12, source: antibody facility of the Helmholtz Center Munich, hybridoma supernatants were used at a 1:10 dilution)[75], α-TRAF6 (H-274, Santa Cruz Biotech., #sc-7221, used at 1:1000), α-HA-tag (12CA5, Sigma-Aldrich, #11583816001, used at 0.4 µg per mL), α-IκBα (C-21, Santa Cruz Biotech., #sc-371, used at 1:500) and α-Tubulin (B-5-1-2, Santa Cruz Biotech., #sc-23948, used at 1:500). Horseradish peroxidase-coupled antibodies were used as secondary antibodies (Cell Signalling Technology, #7074 or #7076, respectively, both used at 1:5000). ECL signals were captured on X-ray films (Agfa Healthcare) and quantified by densitometry using the ImageJ software. Uncropped scans of immunoblots indicating molecular weights are provided in Supplementary Fig. 6.
HEK293 cells were transfected with 1 µg of pRK5-Flag TRAF6 plasmids, 1 µg of pCMV-HA-LMP1 and 6 µg of pRK5 per 10 cm cell culture dish using PolyFect Transfection Reagent (Qiagen, #301107) in RPMI without supplements. Cells were incubated with the plasmid transfection mix for 4 h before the medium was changed to RPMI full medium. After 24 h, the cells were lysed in NP40-lysis buffer (50 mM HEPES pH 7.5, 150 mM NaCl, 5 mM EDTA, 0.5 mM sodium orthovanadate, 0.5 mM PMSF, 0.5 mM sodium molybdate, and cOmplete protease inhibitor cocktail). Lysates were cleared by centrifugation at 15000 x g for 10 min at 4 °C, and the protein concentration was adjusted to 1 mg per mL. For immunoprecipitation 4 mL of lysate was incubated with the α-Flag antibody 6F7 (Sigma-Aldrich, #F3165; covalently coupled to protein-G-Sepharose) for 1 h at 4 °C. The beads were pelleted at 15000 x g for 30 seconds at 4 °C, washed twice with NP40-lysis buffer, and analyzed by immunoblotting.

NF-κB in TRAF6^-/- MEFs = test: NF-κB reporter assay, TRAF6 rescue of CTAR2 signalling; assay type: cell-based, mouse; set-up: unit not given here
Method: TRAF6^−/− cells (6 × 10^4) were seeded per well of a 6-well plate in DMEM full medium the day before transfection. Cells were transfected with 2 µg of the indicated pCMV-HA-LMP1 plasmids together with 0.5 µg of pRK5-Flag-TRAF6 plasmids or empty vector, 0.05 µg of NF-κB luciferase reporter 3xκB-Luc and 0.2 µg of pPGK-Renilla housekeeping control reporter using the PolyFect transfection reagent (Qiagen)[33]. After 4 h the transfection mix was removed, and the cells were kept overnight in DMEM full medium. NF-κB reporter and Renilla control activities were measured with the Dual-Luciferase reporter assay kit (Promega, #E1910) following the manufacturer’s instructions. Samples of each lysate were analyzed for LMP1 and TRAF6 expression by immunoblotting.

[1] = test system: IκBα in TRAF6^-/- MEFs expressing NGFR-LMP1; test: IκBα degradation (canonical NF-κB) upon NGFR-LMP1 crosslinking; assay type: cell-based, mouse; conditions: IκBα immunoblot
Text: Wild-type MEFs and derivatives thereof, TRAF6^-/- MEFs[79], and HeLa cells (obtained from the German Collection of Microorganisms and Cell Cultures, GCMC) were kept in Dulbecco’s modified Eagle’s medium (DMEM, Thermo Fischer, #41966-029). The cell lines HEK293 (obtained from GCMC), HA-LCL3[31], LCL721[80], BL41[81], LCL.NGFR-LMP1[35], and the mouse lymphomas LMP1-CL 37 and 40 were kept in Roswell Park Memorial Institute medium (RPMI 1640, Thermo Fisher, #21875-034). If not indicated otherwise, DMEM and RMPI were supplemented with 10% of fetal bovine serum (FBS; Sigma, #F7524), 1 mM L-glutamine (Thermo Fisher, #25030-024) and antibiotics (50 U per mL penicilline and 50 µg per mL streptomycin). LCL.NGFR-LMP1 cells were additionally supplemented with 100 nM sodium selenite and crosslinking primary and secondary antibodies (see below). All cells were kept at 37 °C in the presence of 5% CO2. Retroviral transduction of MEFs with NGFR-LMP1 and TRAF6 was carried out with the vectors pSF91-NGFR-LMP1-IRES-GFP-WPRE and pSF91-Flag-TRAF6-IRES-CFP-WPRE expressing TRAF6 wild-type or the indicated TRAF6 mutants. For NGFR-LMP1 crosslinking, 1 µg per mL of α-NGFR primary antibody (clone HB8737, ATTC) was added for 1 h to the cells. signalling was activated by further addition of 10 µg per mL of α-mouse IgG/IgM secondary antibody (Dianova, #115-005-068) for the given time points.
as §1, with “Horseradish peroxidase-coupled antibodies were used as secondary antibodies (Cell Signalling Technology, #7074 or #7076, respectively, both used at 1:5000).” left out, “Uncropped scans of immunoblots indicating molecular weights are provided in Supplementary Fig. 6.” left out

GST-RANK314-355 = test: AlphaScreen PPI, TRAF6 mutants binding to RANK; set-up: species or system human
[2] = with A204xAxA (CTAR2-specific signalling), replicate 1
[3] = with A204xAxA/∆371-386 (inactive null control), replicate 1
[4] = with A204xAxA/∆371-386, mean of n = 5
[5] = with A204xAxA/∆371-386, replicate 2
[6] = with A204xAxA/∆371-386, replicate 3
[7] = with A204xAxA/∆371-386, replicate 4
[8] = with A204xAxA/∆371-386, replicate 5

| Molecule | coprecipitated HA-LMP1 signal (densitometry), mean (HA-LMP1) | interaction of TRAF6 mutants with LMP1 in HEK293 cells (in words) (HA-LMP1) | NF-κB reporter activity (NF-κB in TRAF6^-/- MEFs; [2]) | NF-κB reporter activity, mean (NF-κB in TRAF6^-/- MEFs; with A204xAxA, mean of n = 5) | NF-κB reporter activity (NF-κB in TRAF6^-/- MEFs; with A204xAxA, replicate 2) | NF-κB reporter activity (NF-κB in TRAF6^-/- MEFs; with A204xAxA, replicate 3) | NF-κB reporter activity (NF-κB in TRAF6^-/- MEFs; with A204xAxA, replicate 4) | NF-κB reporter activity (NF-κB in TRAF6^-/- MEFs; with A204xAxA, replicate 5) | NF-κB reporter activity (NF-κB in TRAF6^-/- MEFs; [3]) | NF-κB reporter activity, mean (NF-κB in TRAF6^-/- MEFs; [4]) | NF-κB reporter activity (NF-κB in TRAF6^-/- MEFs; [5]) | NF-κB reporter activity (NF-κB in TRAF6^-/- MEFs; [6]) | NF-κB reporter activity (NF-κB in TRAF6^-/- MEFs; [7]) | NF-κB reporter activity (NF-κB in TRAF6^-/- MEFs; [8]) | rescue of canonical NF-κB activation by NGFR-LMP1 (in words) [1] | effect of TRAF6 mutation on binding to RANK (in words) (GST-RANK314-355; listed as TRAF6 R392A) | effect of TRAF6 mutation on binding to RANK (in words) (GST-RANK314-355; listed as Y471A) |
| --- | --- | --- | --- | --- | --- | --- | --- | --- | --- | --- | --- | --- | --- | --- | --- | --- | --- |
| R392A (protein, UniProt Q9Y4K3 1-522, looked up, variant R392A) TNF receptor-associated …: MSLLNCENSCGSSQSESDCCVAMASSCSAVTKDDSVGGTASTGNLSSSFMEEIQGYDVEFDPPLESKYECPICLMALREAVQTPCGHRFCKACIIKSIRDAGHKCPVDNEILLENQLFPDNFAKREILSLMVKCPNEGCLHKMELRHLEDHQAHCEFALMDCPQCQRPFQKFHINIHILKDCPRRQVSCDNCAASMAFEDKEIHDQNCPLANVICEYCNTILIREQMPNHYDLDCPTAPIPCTFSTFGCHEKMQRNHLARHLQENTQSHMRMLAQAVHSLSVIPDSGYISEVRNFQETIHQLEGRLVRQDHQIRELTAKMETQSMYVSELKRTIRTLEDKVAEIEAQQCNGIYIWKIGNFGMHLKCQEEEKPVVIHSPGFYTGKPGYKLCMALHLQLPTAQRCANYISLFVHTMQGEYDSHLPWPFQGTIRLTILDQSEAPVRQNHEEIMDAKPELLAFQRPTIPRNPKGFGYVTFMHLEALRQRTFIKDDTLLVRCEVSTRFDMGSLRREGFQPRSTDAGV | 2761976 | abolished the TRAF6 interaction with LMP1 | 29.9 | 25.57 | 20.3 | 24.4 | 30.5 | 22.7 | 23.3 | 17.45 | 12.6 | 15.1 | 21.7 | 14.7 | ineffective in rescuing canonical NF-κB activation | do not interact |  |
| F471A (protein, UniProt Q9Y4K3 1-522, looked up, variant F471A) TNF receptor-associated …: MSLLNCENSCGSSQSESDCCVAMASSCSAVTKDDSVGGTASTGNLSSSFMEEIQGYDVEFDPPLESKYECPICLMALREAVQTPCGHRFCKACIIKSIRDAGHKCPVDNEILLENQLFPDNFAKREILSLMVKCPNEGCLHKMELRHLEDHQAHCEFALMDCPQCQRPFQKFHINIHILKDCPRRQVSCDNCAASMAFEDKEIHDQNCPLANVICEYCNTILIREQMPNHYDLDCPTAPIPCTFSTFGCHEKMQRNHLARHLQENTQSHMRMLAQAVHSLSVIPDSGYISEVRNFQETIHQLEGRLVRQDHQIRELTAKMETQSMYVSELKRTIRTLEDKVAEIEAQQCNGIYIWKIGNFGMHLKCQEEEKPVVIHSPGFYTGKPGYKLCMRLHLQLPTAQRCANYISLFVHTMQGEYDSHLPWPFQGTIRLTILDQSEAPVRQNHEEIMDAKPELLAFQRPTIPRNPKGAGYVTFMHLEALRQRTFIKDDTLLVRCEVSTRFDMGSLRREGFQPRSTDAGV | 5862061 | abolished the TRAF6 interaction with LMP1 | 22.4 | 20.18 | 16.8 | 19.1 | 26.3 | 16.3 | 22.3 | 19.11 | 23.1 | 15.5 | 21.1 | 13.4 | ineffective in rescuing canonical NF-κB activation |  | abolished the interaction of TRAF6 with RANK; also recorded: do not bind to RANK |
| Y473A (protein, UniProt Q9Y4K3 1-522, looked up, variant Y473A) TNF receptor-associated …: MSLLNCENSCGSSQSESDCCVAMASSCSAVTKDDSVGGTASTGNLSSSFMEEIQGYDVEFDPPLESKYECPICLMALREAVQTPCGHRFCKACIIKSIRDAGHKCPVDNEILLENQLFPDNFAKREILSLMVKCPNEGCLHKMELRHLEDHQAHCEFALMDCPQCQRPFQKFHINIHILKDCPRRQVSCDNCAASMAFEDKEIHDQNCPLANVICEYCNTILIREQMPNHYDLDCPTAPIPCTFSTFGCHEKMQRNHLARHLQENTQSHMRMLAQAVHSLSVIPDSGYISEVRNFQETIHQLEGRLVRQDHQIRELTAKMETQSMYVSELKRTIRTLEDKVAEIEAQQCNGIYIWKIGNFGMHLKCQEEEKPVVIHSPGFYTGKPGYKLCMRLHLQLPTAQRCANYISLFVHTMQGEYDSHLPWPFQGTIRLTILDQSEAPVRQNHEEIMDAKPELLAFQRPTIPRNPKGFGAVTFMHLEALRQRTFIKDDTLLVRCEVSTRFDMGSLRREGFQPRSTDAGV | 5322536 | abolished the TRAF6 interaction with LMP1 | 17.9 | 16.74 | 12.1 | 18.2 | 20.7 | 14.7 | 21.7 | 17.54 | 12.1 | 17.7 | 21.8 | 14.3 | ineffective in rescuing canonical NF-κB activation |  |  |
